Substitutions are numbered along the chain they refer to.
B1: SEQ ID NO: 300: GAT polypeptide (protein)
chain: MIEVKPINAEDTYEIRHRILRPNQPLEACMYETDSLGGTFHLGGYYRGKLISIASFNQAEHPELEGQKQYQLRGMATLEGYREQKAGSTLIRHAEELLRKKGADLLWCNARTSASGYYKKLGFSEQGEVYDTPPVGPHILMYKKLT
modifications: 13_6D10
notes: GAT polypeptide
B2: SEQ ID NO: 359: GAT polypeptide (protein)
chain: B1 chain with S35L, N57H, P62S, T132I, V135I
modifications: 3B_12B1
notes: GAT polypeptide
B3: SEQ ID NO: 363: GAT polypeptide (protein)
chain: B1 chain with S35L, N57H, P62S, E83G, K119E, T132I, V135I
modifications: 3C_12H10
notes: GAT polypeptide
B4: SEQ ID NO: 384: GAT polypeptide (protein)
chain: B1 chain with S35L, N57H, E60V, P62S, E128G, T132I
modifications: 6_16F5
notes: GAT polypeptide
B5: SEQ ID NO: 373: GAT polypeptide (protein)
chain: B1 chain with M30K, S35L, T39A, N57H, A59S, Q84L, T112I, T132I, V135I
modifications: 4B_1G4
notes: GAT polypeptide
B6: SEQ ID NO: 369: GAT polypeptide (protein)
chain: B1 chain with M30K, S35L, N57H, P62S, E128G, T132I, V135I
modifications: 4B_16E1
notes: GAT polypeptide
B7: SEQ ID NO: 267: GAT polypeptide (protein)
chain: B1 chain with M30K, S35L, G37R, T39A, I51V, N57H, E96A, V135A
modifications: 14_2F11
notes: GAT polypeptide
B8: SEQ ID NO: 381: GAT polypeptide (protein)
chain: B1 chain with S35L, N57H, P62S, Q67H, G80E, E128G, T132I
modifications: 6_14D10
notes: GAT polypeptide
B9: SEQ ID NO: 360: GAT polypeptide (protein)
chain: B1 chain with S35L, T39A, N57H, Q58P, P62S, T112I, K119E, T132I, V135I
modifications: 3B_12D10
notes: GAT polypeptide
B10: SEQ ID NO: 358: GAT polypeptide (protein)
chain: B1 chain with S35L, N57H, P62S, E128G, T132I, V135I
modifications: 3B_10G7
notes: GAT polypeptide
B11: SEQ ID NO: 367: GAT polypeptide (protein)
chain: B1 chain with M30K, S35L, N57H, G80E, T112I, K119E, T132I, V135I
modifications: 4B_13E1
notes: GAT polypeptide
B12: SEQ ID NO: 379: GAT polypeptide (protein)
chain: B1 chain with S35L, G37R, T39A, N57H, K119E, T132I, V135I
modifications: 4C_8C9
notes: GAT polypeptide
B13: SEQ ID NO: 380: GAT polypeptide (protein)
chain: B1 chain with S35L, T39A, R47Q, N57H, E60V, P62S, A114V, E128G, T132I, V135I
modifications: 4H1
notes: GAT polypeptide
B14: SEQ ID NO: 357: GAT polypeptide (protein)
chain: B1 chain with K5R, S35L, N57H, P62S, V129A, T132I, V135I
modifications: 3B_10C4
notes: GAT polypeptide
B15: SEQ ID NO: 377: GAT polypeptide (protein)
chain: B1 chain with M30K, S35L, N57H, P62S, Q126H, T132I, V135I
modifications: 4B_6D8
notes: GAT polypeptide
B16: SEQ ID NO: 368: GAT polypeptide (protein)
chain: B1 chain with S35L, N57H, P62S, E128G, T132I, V135I, H138Y
modifications: 4B_13G10
notes: GAT polypeptide
B17: SEQ ID NO: 378: GAT polypeptide (protein)
chain: B1 chain with S35L, N57H, P62S, A114V, T132I, V135I
modifications: 4B_7E8
notes: GAT polypeptide
B18: SEQ ID NO: 365: GAT polypeptide (protein)
chain: B1 chain with S35L, N57H, K119E, T132I, V135I
modifications: 4A_1B11
notes: GAT polypeptide
B19: SEQ ID NO: 375: GAT polypeptide (protein)
chain: B1 chain with S35L, N57H, P62S, E128G, D131G, T132I, V135I
modifications: 4B_2H7
notes: GAT polypeptide
B20: SEQ ID NO: 383: GAT polypeptide (protein)
chain: B1 chain with M30K, S35L, N57H, P62S, E128G, T132I
modifications: 6_16A5
notes: GAT polypeptide
B21: SEQ ID NO: 268: GAT polypeptide (protein)
chain: B1 chain with S35L, G37R, T39A, N57H, P62S
modifications: CHIMERA
notes: GAT polypeptide
B22: SEQ ID NO: 366: GAT polypeptide (protein)
chain: B1 chain with M30K, S35L, N57H, P62S, G80E, T132I, V135I
modifications: 4A_1C2
notes: GAT polypeptide
B23: SEQ ID NO: 361: GAT polypeptide (protein)
chain: B1 chain with S35L, N57H, P62S, K119E, E125K, T132I, V135I
modifications: 3B_2E5
notes: GAT polypeptide
B24: SEQ ID NO: 370: GAT polypeptide (protein)
chain: B1 chain with M30K, S35L, N57H, G80E, K119E, T132I, V135I
modifications: 4B_17A1
notes: GAT polypeptide
B25: SEQ ID NO: 382: GAT polypeptide (protein)
chain: B1 chain with M30K, S35L, N57H, P62S, T132I
modifications: 6_15G7
notes: GAT polypeptide
B26: SEQ ID NO: 362: GAT polypeptide (protein)
chain: B1 chain with S35L, N57H, P62S, T112I, E128G, T132I
modifications: 3C_10H3
notes: GAT polypeptide
B27: SEQ ID NO: 376: GAT polypeptide (protein)
chain: B1 chain with V4A, M30K, S35L, N57H, P62S, T132I, V135I
modifications: 4B_2H8
notes: GAT polypeptide
B28: SEQ ID NO: 372: GAT polypeptide (protein)
chain: B1 chain with M30K, S35L, N57H, E128G, T132I, V135I, T146A
modifications: 4B_19C8
notes: GAT polypeptide
B29: SEQ ID NO: 374: GAT polypeptide (protein)
chain: B1 chain with S35L, N57H, P62S, G80E, T112I, E128G, T132I, V135I
modifications: 4B_21C6
notes: GAT polypeptide
B30: SEQ ID NO: 445: GAT polypeptide (protein)
chain: MLEVKPINAEDTYELRHRILRPNQPIEACMYESDLLRGAFHLGGYYRGKLISIASFHQAEHSELQGQKQYQLRGMATLEGYREQKAGSSLIKHAEEILRKRGADLLWCNARTSASGYYKKLGFSEQGEIFETPPVGPHILMYKRIT
modifications: 0_5D3
notes: GAT polypeptide
B31: SEQ ID NO: 457: GAT polypeptide (protein)
chain: B30 chain with R18K, I26L, A28V, S33T, Y45F, I129V, E131D
modifications: 10_4H4
notes: GAT polypeptide
B32: SEQ ID NO: 364: GAT polypeptide (protein)
chain: MIEVKPINAEDTYEIRHRILRPNQPLEACMYETDLLGGTFHLGGYYQDRLISIASFHQAEHSELEGQKQYQLRGMATLEGYREQKAGSTLIRYAEELLRKKGADLLWCNARISASGYYEKLGFSEQGEVYDIPPIGPHILMYKKLT
modifications: 3C_9H8
notes: GAT polypeptide
B33: SEQ ID NO: 371: GAT polypeptide (protein)
chain: MIEVNPINAEDTYEIRHRILRPNQPLEACMYETDLLGGTSHLGGYYRGKLISIASFHNAEHSELDGQKQYQLRGMATLEGYREQKAGSTLIRHAEELLRKKGADLLWCNARTSVSGYYEKLGFSEQGEVYDIPPIGPHISMYKKLT
modifications: 4B_18F11
notes: GAT polypeptide

Assay: Standard protocol for determination of kcat and KM (continuous spectrophotometric assay, Acetyl CoA hydrolysis at 235 nm)
Type: biochemical
Conditions: purified protein, about 23° C., 0.2 mM acetyl CoA; for Kcat: 20 mM HEPES pH 6.8, 10% ethylene glycol; for Km: pH 6.8, glyphosate 0.125 to 10 mM
Method: KM was calculated from the initial reaction rates obtained from concentrations of glyphosate ranging from 0.125 to 10 mM, using the Lineweaver-Burke transformation of the Michaelis-Menten equation. kcat/KM was determined by dividing the value determined for kcat by the value determined for KM.
Using this methodology, kinetic parameters for a number of GAT polypeptides exemplified herein were determined. For example, the kcat, KM and kcat/KM for the GAT polypeptide corresponding to SEQ ID NO:445 have been determined to be 322 min^−1, 0.5 mM and 660 mM^−1 min^−1, respectively, using the assay conditions described above. The kcat, KM and kcat/KM for the GAT polypeptide corresponding to SEQ ID NO:457 have been determined to be 118 min^−1, 0.1 mM and 1184 mM^−1 min^−1, respectively, using the assay conditions described above. The kcat, KM and kcat/KM for the GAT polypeptide corresponding to SEQ ID NO:300 have been determined to be 296 min^−1, 0.65 mM and 456 mM^−1 min^−1, respectively, using the assay conditions described above. One of skill in the art can use these numbers to confirm that a GAT activity assay is generating kinetic parameters for a GAT suitable for comparison with the values given herein. For example, the conditions used to compare the activity of GATs should yield the same kinetic constants for SEQ ID NO: 300, 445 and 457 (within normal experimental variance) as those reported herein, when the conditions are used to compare a test GAT with the GAT polypeptides exemplified herein. Kinetic parameters for a number of GAT polypeptide variants were determined according to this methodology and are provided in Table 3.

Molecule | Kcat [s⁻¹] | Kcat (listed as SEQ ID NO:300) [s⁻¹] | Km [µM] | Kcat (listed as SEQ ID NO:457) [s⁻¹]
B1 | 4.942 | 4.93 | 650 | 
B2 | 0.38 |  | 1200 | 
B3 | 0.152 |  | 1200 | 
B4 | 0.587 |  | 1000 | 
B5 | 0.0617 |  | 1000 | 
B6 | 0.283 |  | 1000 | 
B7 | 2.282 |  | 1700 | 
B8 | 0.703 |  | 1500 | 
B9 | 0.09 |  | 900 | 
B10 | 0.327 |  | 1000 | 
B11 | 0.62 |  | 2000 | 
B12 | 0.15 |  | 600 | 
B13 | 0.0217 |  | 1400 | 
B14 | 0.413 |  | 1600 | 
B15 | 0.378 |  | 1500 | 
B16 | 0.582 |  | 7600 | 
B17 | 0.342 |  | 1200 | 

Molecule | Kcat [s⁻¹] | Kcat (listed as SEQ ID NO:300) [s⁻¹] | Km [µM] | Kcat (listed as SEQ ID NO:457) [s⁻¹]
B18 | 0.387 |  | 1600 | 
B19 | 0.45 |  | 6200 | 
B20 | 0.73 |  | 1100 | 
B21 | 2.59 |  | 1300 | 
B22 | 0.34 |  | 1200 | 
B23 | 0.273 |  | 1300 | 
B24 | 0.318 |  | 1100 | 
B25 | 0.807 |  | 1300 | 
B26 | 0.565 |  | 1100 | 
B27 | 0.638 |  | 1200 | 
B28 | 0.265 |  | 1200 | 
B29 | 0.197 |  | 800 | 
B30 | 5.37 |  | 500 | 
B31 | 1.9727 |  | 100 | 1.97
B32 | 0.195 |  | 1000 | 
B33 | 0.243 |  | 1700 | 

Reference: patent US8008547B2, “Glyphosate-N-acetyltransferase (GAT) genes” (E.I. duPont de Nemours, priority 2000, dated 2011)
